For data set [1], the target named is T1, TaMYB13-1 (correctly spliced form) (Triticum aestivum).
T1 chain: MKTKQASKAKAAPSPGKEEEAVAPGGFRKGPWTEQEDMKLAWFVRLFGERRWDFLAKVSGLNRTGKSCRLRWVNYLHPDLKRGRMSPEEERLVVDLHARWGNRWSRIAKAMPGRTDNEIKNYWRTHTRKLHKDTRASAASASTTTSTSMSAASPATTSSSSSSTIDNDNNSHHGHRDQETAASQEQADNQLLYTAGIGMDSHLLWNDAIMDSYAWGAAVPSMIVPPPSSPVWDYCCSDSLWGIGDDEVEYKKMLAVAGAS
Put plainly: no or negligible activity, relative to SynO2m14. The following applies: tags: C-terminal 6xHis-tagged CELD cellulase reporter fusion; label: biotin.

The target in data set [2] is T1, TaMYB13-1 (correctly spliced form). Put plainly: background control. The settings on record: tags: C-terminal 6xHis-tagged CELD cellulase reporter fusion; label: biotin. As for the experimental part:
(§1) The DNA-binding activity of TaMYB13-CELD was measured as described previously (Xue, 2002a) using streptavidin-coated 96-well plate and binding/washing buffer (25 mM HEPES/KOH, pH 7.0, 50 mM KCl, 0.2 mM EDTA and 0.5 mM DTT) containing 0.15 µg µl^-1 shared herring sperm DNA, 0.3 mg ml^-1 bovine, serum albumin, 10% glycerol and 0.025% Nonidet P-40. 40,000 fluorescent units h^-1 of the CELD activity of TaMYB13-CELD protein and 2 pmol of biotinylated probes were used per assay. The cellulase activity of TaMYB13-CELD proteins bound to immobilised biotinylated probes was assayed by incubation in 100 μl of the CELD substrate solution [1 mM methylumbelliferyl β-D-cellobioside (MUC) in 50 mM Na-citrate buffer, pH 6.0] at 40° C. for 3 h. A biotin-labelled double-stranded oligonucleotide without a TaMYB13 binding site was used as a control of background activity.

Data set [3] shares this target. Put plainly: CELD reporter assay; positive control. The settings on record: tags: C-terminal 6xHis-tagged CELD cellulase reporter fusion; label: biotin. As for the experimental part:
as §1
For orientation: A reporter such as luciferase makes a cellular process visible.

Data set [4] has the same target. Put plainly: higher affinity than S3; assayed oligonucleotide may be longer. The settings on record: tags: C-terminal 6xHis-tagged CELD cellulase reporter fusion. The method, then: as §1
Data set [5] shares this target. Put plainly: assayed oligonucleotide may be longer. The settings on record: tags: C-terminal 6xHis-tagged CELD cellulase reporter fusion.
For data set [6] the target is unchanged. Put plainly: higher affinity than Ta1-SST S1; assayed oligonucleotide may be longer. The settings on record: tags: C-terminal 6xHis-tagged CELD cellulase reporter fusion. The method, then:
as §1

For data set [7] the target is unchanged. Put plainly: no or negligible activity. The settings on record: tags: C-terminal 6xHis-tagged CELD cellulase reporter fusion; label: biotin.
The target is the same in data set [8]. Put plainly: CELD reporter plate assay, 25 mM HEPES pH 7.0, 50 mM KCl; self-competition at 2.5x reduced binding about 60%. The following applies: tags: C-terminal 6xHis-tagged CELD cellulase reporter fusion; label: biotin. The method, then: (§2) The DNA-binding activity of TaMYB13-CELD was measured as described previously (Xue, 2002a) using streptavidin-coated 96-well plate and binding/washing buffer (25 mM HEPES/KOH, pH 7.0, 50 mM KCl, 0.2 mM EDTA and 0.5 mM DTT) containing 0.15 µg µl^-1 shared herring sperm DNA, 0.3 mg ml^-1 bovine, serum albumin, 10% glycerol and 0.025% Nonidet P-40. 40,000 fluorescent units h^-1 of the CELD activity of TaMYB13-CELD protein and 2 pmol of biotinylated probes were used per assay. […]
(§3) Binding site competition assays were as described by Xue (2002). […] Relative TaMYB13 binding activity was expressed as fluorescence units (FU) of methylumbelliferyl group generated from MUC hydrolysis by TaMYB13-CELD that bound to an immobilised biotin-labelled probe after 3-h incubation of cellulase assay.
(§4) To further analyse the relative binding affinity of the previously reported plant R2R3 MYB protein sites in relation to the preferred TaMYB13-binding site, a binding site competition analysis was performed. Relative TaMYB13 binding activity to three biotin-labelled probes (SynO2m14, MYB.Ph3-II and MRE2) was assessed in combination with or without one of the four unlabelled competitors in a 2.5-fold amount: SynO2m14, MYB.Ph3-II, MRE2 and AC-I. The addition of a 2.5-fold amount of unlabelled SynO2m14 to biotin-labelled SynO2m14 reduced the TaMYB13 binding activity by about 60%. […]

Data set [9] has the same target. Put plainly: relative to SynO2m14. The following applies: tags: C-terminal 6xHis-tagged CELD cellulase reporter fusion; label: biotin.
Data set [10] shares this target. Put plainly: no or negligible activity; did not compete with SynO2m14. The following applies: tags: C-terminal 6xHis-tagged CELD cellulase reporter fusion; label: biotin. As for the experimental part:
as §2, §3, §4

B1: MYB.Ph3-I (dsDNA)
DNA 1: TCGAGGGAATAAAAACGGTTATGATGT
DNA 2: ACATCATAACCGTTTTTATTCCCTCGA
B1: in data set [1], the binding result is “no binding”.

B2: control without TaMYB13 site (dsDNA)
DNA 1: GAGAATTTGCCGTTTATCTAGAAATTACCT
DNA 2: AGGTAATTTCTAGATAAACGGCAAATTCTC
Turning to B2, the binding result in [2] is given as “no binding”.

B3: SynO2 (dsDNA)
DNA 1: TCGACCGAATAAAGTTTGGTATGATGT
DNA 2: ACATCATACCAAACTTTATTCGGTCGA
As to B3, the binding result in data set [3] is reported as “binds”.

B4: Ta6-SFT1 S1 site (dsDNA)
DNA 1: TGTTAGGTTCGGTT
DNA 2: AACCGAACCTAACA
Take B4: the binding result in data set [4] is “binds”.

B5: Hv6-SFT S1 site (dsDNA)
DNA 1: TATGTTAGGTAC
DNA 2: GTACCTAACATA
With B5, in data set [5], the binding result is “binds”.

B6: Ta1-SST S2 site (dsDNA)
DNA 1: ATGTTCGGTAA
DNA 2: TTACCGAACAT
As to B6, the binding result in data set [6] was “binds”.

B7: MRE (rev-comp) (dsDNA)
DNA 1: TCGAGGGAATAATTTTTGGTTTGATGT
DNA 2: ACATCAAACCAAAAATTATTCCCTCGA
As to B7, the binding result in data set [7] was “no binding”.

B8: SynO2m14 (dsDNA)
DNA 1: TCGAGGGAATAAAGTTAGGTAAGATGT
DNA 2: ACATCTTACCTAACTTTATTCCCTCGA
On to B8, for which, in [8], the binding result was “binds”.

B9: AC-III (dsDNA)
DNA 1: TCGAGGGAATAAAGTTAGGTTATGATGT
DNA 2: ACATCATAACCTAACTTTATTCCCTCGA
For the molecule B9, the binding result in data set [9] is given as “binds”.

B10: AC-I (rev-comp) (dsDNA)
DNA 1: TCGAGGGAATAAGGTAGGTGGATGATGT
DNA 2: ACATCATCCACCTACCTTATTCCCTCGA
Consider B10, for which, in data set [10], the binding result is “no binding”.
